Bridges are numbered along the chain shown (N, C = ends). Primed or numbered codes have the meaning given here. Where no end group is shown, it is not given here. [ ]: non-standard residue; d: D form. The star is where a group is joined. Biotin = O=C1N[C@H]2[C@H](CS[C@H]2CCCCC(=O)*)N1; Benzoyl(3-SO2F) = O=C(c1cccc(S(=O)(=O)F)c1)*; Lys(N3) = [N-]=[N+]=NCCCC[C@H](N)C(=O)O; azido = azide group (monovalent —N3); DBCO′ = not defined here; PEG4′ = not defined here
Key:
CD64 [1] = target: T1, CD64 (Homo sapiens, UniProt P12314); assay: Koff (s^-1)
Protocol: (§1) Table printed on a drawing sheet, FIG. 8A
Head of the field: Koff (s^-1)
(§2) The patent's description of the figure: FIG. 8A-8B depicts results for the CP-33(N-term “Y” insertion mutant). […] (Note: the linker-biotin is attached to the azide; DBCO-Biotin not shown).
(§3) First copying reader's note: The name cp33-nt-tyr is printed with the structure in FIG. 8B on the same sheet; per the description, the BLI kinetics were measured with its linker-biotin conjugate binding to human CD64.
Target sequence in this assay (P12314 16-374 limits assumed): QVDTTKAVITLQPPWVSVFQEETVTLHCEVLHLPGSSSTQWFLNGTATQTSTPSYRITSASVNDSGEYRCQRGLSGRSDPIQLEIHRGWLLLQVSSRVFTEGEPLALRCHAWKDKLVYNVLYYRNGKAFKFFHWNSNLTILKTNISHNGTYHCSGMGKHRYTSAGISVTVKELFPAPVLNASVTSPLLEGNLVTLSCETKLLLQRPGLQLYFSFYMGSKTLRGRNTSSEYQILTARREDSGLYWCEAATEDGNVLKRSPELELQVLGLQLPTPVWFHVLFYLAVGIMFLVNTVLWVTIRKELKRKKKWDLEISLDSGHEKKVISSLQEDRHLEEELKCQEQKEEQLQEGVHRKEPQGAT

CD64 [2] = target: T1, CD64; assay: Kon (M^-1 s^-1)
Protocol: as §1
Target sequence in this assay (P12314 16-374 limits assumed): as above
Head of the field: Kon (M^-1 s^-1)
as §2, §3

CD64 [3] = target: T1, CD64; assay: fluorescent SDS-PAGE covalent labelling specificity of sulfonyl fluoride CIRs (CD64, CD16, BSA); type: binding; settings: 1.6 μM CIR-A647, 800 nM protein, 7 hours, room temperature
Protocol: Dark bands show A647 fluorescence as measured using the Cy5 channel and represent covalent CIR binding. For each sample, 1.6 μM CIR clicked to A647 fluorescent dye was incubated with 800 nM of protein for 7 hours.
The specificity of the three sulfonyl fluoride CIR variations for labelling CD64 were investigated using a fluorescent SDS-PAGE assay similar to as described above (FIG. 16). 1.6 μM CIR clicked to A647 fluorescent dye was incubated with 800 nM of protein for 7 hours at room temperature in the dark. Three different proteins were assayed to test specificity: CD64, CD16, and BSA. The samples were then run on a 4-20% gradient acrylamide gel and fluorescence was measured using the Cy5 channel with an Amersham Typhoon biomolecular imager. Only covalently labelled CIR will remain bound to CD64 in SDS-PAGE giving rise to fluorescent bands.
Target sequence in this assay (P12314 16-374): as the sequence (P12314 16-374 limits assumed) above

CD64 [4] = target: T1, CD64; assay: fluorescent SDS-PAGE covalent labelling kinetics of CD64; type: binding; settings: 1.6 μM CIR, 800 nM CD64, one-phase association fit
Protocol: Dark bands show A647 fluorescence as measured using the Cy5 channel and represent covalent CIR binding. 1.6 μM of CIR was incubated with 800 nM CD64 for different amounts of time before being run on a SDS-PAGE gel.
The fluorescence intensity of each band in FIG. 17A-17C was measured and then compared to the fluorescence intensity of the band at 100% fraction labelled (where the fluorescence intensity reaches a plateau) to make a fraction bound vs time graph. The curve of the graph was fitted to a one-phase association curve in GraphPad Prism 8 to find the Kobs.
The kinetics of the labelling reaction was also investigated using fluorescent SDS-PAGE gels similar to as described above. 1.6 μM of CIR was incubated with 800 nM CD64 for different amounts of time before being run on a SDS-PAGE gel (FIG. 17). The fluorescence intensity of each band was then measured and then compared to the fluorescence intensity of the band at 100% fraction labelled (where the fluorescence intensity reaches a plateau) to make a fraction bound vs time graph (FIG. 18). The curve of the graph was fitted to a one-phase association curve to find the Kobs.
Target sequence in this assay (P12314 16-374): as the sequence (P12314 16-374 limits assumed) above

CD64 on live U937 cells = target: T2, CD64 on live U937 cells (Homo sapiens, UniProt P12314); assay: CIR-biotin labeling of CD64 on live U937 cells detected with streptavidin-PE; type: cell-based; settings: 24 hours at 37° C. with IFNγ
T2 construct: endogenous in cells
Protocol: CIR-biotin was incubated with U937 cells for 24 hours at 37° C. along with IFNγ. The cells were then washed and incubated with streptavidin-PE. The streptavidin binds tightly to the biotin on the CIR and the fluorescent PE signal was read. cP33-ct-aryl SuFEx (CT), cP33-int-aryl SuFEx (INT), cP33-nt-aryl SuFEx (NT), and a noncovalent analog were incubated at increasing concentrations.
The ability of the three sulfonyl fluoride CIR variants to label CD64 on the surface of live cells was assayed using CIRs clicked to a biotin handle. CIR-biotin was incubated with U937 cells for 24 hours at 37° C. along with IFNγ. Post reaction, the cells were washed and incubated with streptavidin-PE. The streptavidin binds tightly to the biotin on the CIR and the fluorescent PE signal was read using a BD LSRII flow cytometer (FIG. 24). 100X CIR not labelled with biotin was used as competitor control to assess specificity and covalency (FIG. 25).

[5] = LC-MS stability in aqueous conditions at room temperature; settings: over 27 hours
Protocol: The stability of the three sulfonyl fluoride variants in aqueous conditions at room temperature were then assessed using LC-MS. LC-MS measurements were taken over 27 hours and peaks on the UV chromatogram were monitored for CIR degradation (FIG. 19-21).

human CD64 (recombinant) [6] = target: T3, human CD64 (recombinant) (human, UniProt P12314 16-288); assay: BLI; 25 nM CD64
T3 chain: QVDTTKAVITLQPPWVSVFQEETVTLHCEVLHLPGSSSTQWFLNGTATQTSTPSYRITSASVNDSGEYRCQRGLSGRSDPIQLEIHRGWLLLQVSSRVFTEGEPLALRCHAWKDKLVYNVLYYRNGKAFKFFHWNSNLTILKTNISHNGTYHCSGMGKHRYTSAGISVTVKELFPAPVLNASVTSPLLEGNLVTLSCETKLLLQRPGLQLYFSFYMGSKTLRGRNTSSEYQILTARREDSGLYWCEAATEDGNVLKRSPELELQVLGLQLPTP

human CD64 (recombinant) [7] = target: T3, human CD64 (recombinant); assay: BLI; 50 nM CD64
human CD64 (recombinant) [8] = target: T3, human CD64 (recombinant); assay: BLI; 100 nM CD64
human CD64 (recombinant) [9] = target: T3, human CD64 (recombinant); assay: BLI; 12.5 nM CD64
human CD64 (recombinant) [10] = target: T3, human CD64 (recombinant); assay: BLI
human CD64 (recombinant) [11] = target: T4, human CD64 (recombinant) (human, UniProt P12314 16-288, limits assumed); assay: fluorescence SDS-PAGE covalent labelling kinetics, 1.6 µM CIR with 800 nM CD64, one-phase association fit
T4 construct: Recombinant protein in solution, or biotinylated on streptavidin biosensors; Some passages print only 'CD64'; also called huCD64; biotinylated huCD64

human CD64 (recombinant) [12] = target: T3, human CD64 (recombinant); assay: BLI; 50 nM CD64
human CD64 (recombinant) [13] = target: T3, human CD64 (recombinant); assay: BLI; 100 nM CD64
human CD64 (recombinant) [14] = target: T3, human CD64 (recombinant); assay: BLI; 200 nM CD64

T2 sequence (P12314 16-374): as the sequence (P12314 16-374 limits assumed) above

CC(=O)N[C@@H](CCCCN=[N+]=[N-])C(=O)NCC(=O)N[C@@H](Cc1ccc(O)cc1)C(=O)N[C@H](C(=O)N[C@@H](CC(N)=O)C(=O)N[C@@H](CO)C(=O)N[C@H]1CSSC[C@@H](C(=O)NCC(=O)N[C@@H](CC(=O)O)C(=O)N[C@@H](CC(=O)O)C(N)=O)NC(=O)CNC(=O)[C@H](CC(C)C)NC(=O)[C@H](CC(C)C)NC(=O)[C@H](CC(N)=O)NC(=O)[C@@H]2CCCN2C(=O)[C@H](CC(C)C)NC(=O)[C@H](CC(C)C)NC(=O)[C@H](CC(C)C)NC1=O)C(C)C [cp33-nt-tyr]
koff (CD64 [1]): 0.00711 s⁻¹ | kon (CD64 [2]): 332000 M⁻¹ s⁻¹

cP33 ct-aryl SuFEx: cP33 peptide with the sulfonyl fluoride group at the C-terminus; SEQ ID NO: 12 ([Lys(N3)]VNSCLLLPNLLGCDGDK(Benzoyl(3-SO2F)); disulfide 5-14; not fully specified)
covalent labelling preference for CD64 vs CD16 and BSA (CD64 [3]): greater binding selectivity compared to the other variants | Kobs (CD64 [4]): 6.7e-05 s⁻¹ | covalent labelling of CD64 on live cells (streptavidin-PE signal) (CD64 on live U937 cells): specific and effective covalent labelling of CD64 on the surface of live cells | stability in aqueous conditions (degradation peaks in UV trace) [5]: some slight degradation peaks by 27 hours

cP33 int-aryl SuFEx: cP33 peptide with the sulfonyl fluoride at an internal position replacing leucine; SEQ ID NO: 14 ([Lys(N3)]VNSCLLLPNK(Benzoyl(3-SO2F))LGCDGD; disulfide 5-14; not fully specified)
Kobs (CD64 [4]): 9.2e-05 s⁻¹ | stability in aqueous conditions (degradation peaks in UV trace) [5]: noticeable degradation peaks by 27 hours

B1: CP-33(C-term "Y" insertion mutant)-linker-biotin conjugate (peptide)
peptide: XVNSCLLLPNLLGCGDDY
modifications: not fully specified; X1 is K, Ac-K(azido), or absent (azide clicked to DBCO-peg4-biotin); disulfide bond between C5 and C14; C-terminal amidation present or absent
Kd (human CD64 (recombinant) [6]): 2.6 nM | Kd (human CD64 (recombinant) [7]): 3 nM | Kd (human CD64 (recombinant) [8]): 4 nM | Kd (human CD64 (recombinant) [9]): 2 nM

B2: native CP-33-linker-biotin conjugate (peptide)
peptide: {Biotin-PEG4′-DBCO′-azido}-VNSCLLLPNLLGCGDD
modifications: disulfide 4-13; not fully specified
Kd (human CD64 (recombinant) [10]): 56 nM

B3: cP33-ct-aryl SuFEx (peptide)
peptide: [Lys(N3)]VNSCLLLPNLLGCDGDK(Benzoyl(3-SO2F))
modifications: disulfide 5-14; also: X1 azide clicked to DBCO-A647 or DBCO-biotin
Kobs (human CD64 (recombinant) [11]): 6.7e-05 s⁻¹

B4: cP33-int-aryl SuFEx (peptide)
peptide: [Lys(N3)]VNSCLLLPNK(Benzoyl(3-SO2F))LGCDGD
modifications: disulfide 5-14; also: X1 azide clicked to DBCO-A647 or DBCO-biotin
Kobs (human CD64 (recombinant) [11]): 9.2e-05 s⁻¹

B5: CP-33(N-term "Y" insertion mutant)-linker-biotin conjugate (peptide)
peptide: XGYVNSCLLLPNLLGCGDD
modifications: not fully specified; X1 is K, Ac-K(azido), or absent (azide clicked to DBCO-peg4-biotin); disulfide bond between C7 and C16; C-terminal amidation present or absent
Kd (human CD64 (recombinant) [12]): 17.9 nM | Kd (human CD64 (recombinant) [13]): 18.2 nM | Kd (human CD64 (recombinant) [14]): 20.8 nM

— patent US20240083971A1, “IMMUNE EFFECTOR CELL COVALENT IMMUNE RECRUITING (CIR) MOLECULES AND METHODS AND USES THEREOF” (McMaster University, priority 2022, published 2024)
